The values that follow come from US20180140739A1, “HAEMOSTATIC DEVICE” (HAEMOSTATIX LIMITED, priority 2015, published 2018).

Format in all cases: biochemical
Experiment [1] concerns the target T1, purified human fibrinogen (Homo sapiens, UniProt P02675+P02679).
T1 sequence (P02679 27-433 limits assumed): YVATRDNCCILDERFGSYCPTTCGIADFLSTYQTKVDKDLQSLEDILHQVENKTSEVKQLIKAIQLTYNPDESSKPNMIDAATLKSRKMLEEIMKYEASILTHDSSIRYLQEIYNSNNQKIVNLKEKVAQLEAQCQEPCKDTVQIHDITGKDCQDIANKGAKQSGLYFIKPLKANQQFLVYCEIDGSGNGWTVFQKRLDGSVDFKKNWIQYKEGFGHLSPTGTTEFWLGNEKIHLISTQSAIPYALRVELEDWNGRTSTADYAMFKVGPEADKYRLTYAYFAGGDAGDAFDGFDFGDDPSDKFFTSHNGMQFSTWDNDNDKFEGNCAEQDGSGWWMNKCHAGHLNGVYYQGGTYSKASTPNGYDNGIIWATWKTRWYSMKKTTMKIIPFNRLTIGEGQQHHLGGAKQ
T1 sequence (P02675 31-491): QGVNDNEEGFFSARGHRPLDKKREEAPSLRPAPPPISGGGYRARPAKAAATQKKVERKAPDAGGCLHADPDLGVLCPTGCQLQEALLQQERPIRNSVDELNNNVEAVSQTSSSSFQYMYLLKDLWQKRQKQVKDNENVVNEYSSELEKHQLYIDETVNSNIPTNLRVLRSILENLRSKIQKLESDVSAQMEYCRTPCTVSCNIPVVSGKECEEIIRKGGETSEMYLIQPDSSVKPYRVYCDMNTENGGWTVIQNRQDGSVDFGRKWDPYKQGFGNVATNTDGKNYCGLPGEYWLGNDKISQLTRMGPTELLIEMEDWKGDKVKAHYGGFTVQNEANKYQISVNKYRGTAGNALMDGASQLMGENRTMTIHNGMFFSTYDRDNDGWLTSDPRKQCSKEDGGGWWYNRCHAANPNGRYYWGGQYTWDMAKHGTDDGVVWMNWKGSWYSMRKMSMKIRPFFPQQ
T1 sequence (P02671 20-629 partner limits assumed): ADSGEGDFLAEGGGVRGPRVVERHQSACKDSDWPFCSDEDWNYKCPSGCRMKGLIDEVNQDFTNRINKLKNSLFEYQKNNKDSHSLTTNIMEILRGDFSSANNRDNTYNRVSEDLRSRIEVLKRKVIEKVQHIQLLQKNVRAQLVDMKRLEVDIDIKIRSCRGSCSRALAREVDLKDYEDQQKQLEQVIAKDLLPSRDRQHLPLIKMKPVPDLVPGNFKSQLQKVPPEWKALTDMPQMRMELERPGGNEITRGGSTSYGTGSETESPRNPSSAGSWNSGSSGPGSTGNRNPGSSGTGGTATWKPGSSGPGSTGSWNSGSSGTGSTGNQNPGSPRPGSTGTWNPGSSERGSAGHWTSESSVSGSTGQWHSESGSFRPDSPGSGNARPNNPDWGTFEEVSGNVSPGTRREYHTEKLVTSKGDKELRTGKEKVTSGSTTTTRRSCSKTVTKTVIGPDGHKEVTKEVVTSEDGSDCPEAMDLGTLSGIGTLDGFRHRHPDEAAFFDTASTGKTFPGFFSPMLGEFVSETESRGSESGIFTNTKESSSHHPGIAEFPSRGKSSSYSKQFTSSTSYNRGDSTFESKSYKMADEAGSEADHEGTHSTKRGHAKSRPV
The experiment is described as follows: Polymerisation (clotting) of purified fibrinogen, Sigma Amelung KC4 Delta coagulation analyser. On the procedure:
The ability of Peptide Dendrimer No. 12 to polymerise fibrinogen was assessed. 30 μl of dendrimer in solution, at concentration ranging from 0.005-2 mg/ml, was added to 100 μl purified human fibrinogen at 3 mg/ml (the level of fibrinogen found in the blood). Polymerisation of fibrinogen was analysed using a Sigma Amelung KC4 Delta coagulation analyser.
The concentration of each dendrimer was varied from 0.005-0.5 mg/ml.

Experiment [2] has as its target T2, fibrinogen in human plasma (Homo sapiens, UniProt P02675+P02679).
T2 construct: from tissue; host or cells: human plasma
T2 sequence (P02679 27-433 limits assumed): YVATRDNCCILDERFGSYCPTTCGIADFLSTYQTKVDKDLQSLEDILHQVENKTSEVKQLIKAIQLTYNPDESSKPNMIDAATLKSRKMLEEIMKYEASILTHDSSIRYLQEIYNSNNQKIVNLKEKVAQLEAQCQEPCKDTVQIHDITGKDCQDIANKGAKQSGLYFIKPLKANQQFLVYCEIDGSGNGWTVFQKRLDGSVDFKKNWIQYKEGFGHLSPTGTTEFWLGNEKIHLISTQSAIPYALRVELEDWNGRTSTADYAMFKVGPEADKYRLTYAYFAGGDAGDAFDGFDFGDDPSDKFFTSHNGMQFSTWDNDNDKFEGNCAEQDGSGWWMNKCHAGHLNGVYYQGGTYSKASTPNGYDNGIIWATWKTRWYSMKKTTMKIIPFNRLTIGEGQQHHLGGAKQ
T2 sequence (P02675 31-491): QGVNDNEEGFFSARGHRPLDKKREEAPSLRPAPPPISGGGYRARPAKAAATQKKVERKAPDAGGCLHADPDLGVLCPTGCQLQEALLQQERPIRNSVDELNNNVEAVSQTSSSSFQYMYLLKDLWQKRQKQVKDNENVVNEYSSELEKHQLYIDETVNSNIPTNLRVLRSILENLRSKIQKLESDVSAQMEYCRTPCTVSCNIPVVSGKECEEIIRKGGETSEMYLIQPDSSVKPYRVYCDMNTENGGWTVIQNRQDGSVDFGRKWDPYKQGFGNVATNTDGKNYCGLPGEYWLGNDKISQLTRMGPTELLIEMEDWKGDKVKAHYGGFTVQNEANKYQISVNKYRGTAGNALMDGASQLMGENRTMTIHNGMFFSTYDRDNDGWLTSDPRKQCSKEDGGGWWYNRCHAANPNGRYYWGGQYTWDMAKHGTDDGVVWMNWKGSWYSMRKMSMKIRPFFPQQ
T2 sequence (P02671 20-629 partner limits assumed): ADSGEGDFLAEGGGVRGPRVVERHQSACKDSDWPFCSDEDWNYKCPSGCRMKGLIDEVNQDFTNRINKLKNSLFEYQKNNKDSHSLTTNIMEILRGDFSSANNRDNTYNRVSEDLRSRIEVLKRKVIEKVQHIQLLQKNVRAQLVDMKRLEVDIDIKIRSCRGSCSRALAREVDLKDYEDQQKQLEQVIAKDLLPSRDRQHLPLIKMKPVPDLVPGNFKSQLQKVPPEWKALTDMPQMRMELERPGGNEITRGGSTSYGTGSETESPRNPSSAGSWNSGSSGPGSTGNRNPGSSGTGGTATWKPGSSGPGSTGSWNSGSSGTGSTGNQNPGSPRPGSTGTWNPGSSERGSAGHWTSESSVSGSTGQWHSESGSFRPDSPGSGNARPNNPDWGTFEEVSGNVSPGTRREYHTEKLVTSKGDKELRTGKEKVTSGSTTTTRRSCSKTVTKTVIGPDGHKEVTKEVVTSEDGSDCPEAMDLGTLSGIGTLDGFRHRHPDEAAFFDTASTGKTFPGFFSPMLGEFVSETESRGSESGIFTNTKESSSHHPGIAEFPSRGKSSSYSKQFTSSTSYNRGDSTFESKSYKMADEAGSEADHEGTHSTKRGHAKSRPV
The experiment is described as follows: Polymerisation of fibrinogen in human plasma, KC4 Delta coagulation analyzer. Particulars: dendrimer 0.25 mg/ml, 30 μL to 100 μL human plasma, 37° C. On the procedure: 30 μL of each dendrimer (at a concentration of 0.25 mg/ml) was added to 100 μL human plasma at 37° C., and polymerisation of fibrinogen was determined using a Sigma Amelung KC4 Delta coagulation analyzer.

The next experiment addresses T3, human fibrinogen (Homo sapiens, UniProt P02675+P02679).
T3 sequence (P02679 27-433 limits assumed): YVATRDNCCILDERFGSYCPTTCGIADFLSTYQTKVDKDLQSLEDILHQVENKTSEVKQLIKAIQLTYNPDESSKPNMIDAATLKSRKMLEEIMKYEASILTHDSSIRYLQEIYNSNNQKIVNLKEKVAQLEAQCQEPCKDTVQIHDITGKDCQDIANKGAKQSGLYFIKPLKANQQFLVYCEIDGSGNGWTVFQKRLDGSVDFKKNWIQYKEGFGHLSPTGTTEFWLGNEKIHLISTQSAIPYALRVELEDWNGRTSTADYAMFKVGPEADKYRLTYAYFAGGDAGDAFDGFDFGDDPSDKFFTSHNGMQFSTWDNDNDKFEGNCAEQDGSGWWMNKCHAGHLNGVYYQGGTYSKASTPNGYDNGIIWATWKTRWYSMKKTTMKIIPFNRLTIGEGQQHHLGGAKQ
T3 sequence (P02675 31-491): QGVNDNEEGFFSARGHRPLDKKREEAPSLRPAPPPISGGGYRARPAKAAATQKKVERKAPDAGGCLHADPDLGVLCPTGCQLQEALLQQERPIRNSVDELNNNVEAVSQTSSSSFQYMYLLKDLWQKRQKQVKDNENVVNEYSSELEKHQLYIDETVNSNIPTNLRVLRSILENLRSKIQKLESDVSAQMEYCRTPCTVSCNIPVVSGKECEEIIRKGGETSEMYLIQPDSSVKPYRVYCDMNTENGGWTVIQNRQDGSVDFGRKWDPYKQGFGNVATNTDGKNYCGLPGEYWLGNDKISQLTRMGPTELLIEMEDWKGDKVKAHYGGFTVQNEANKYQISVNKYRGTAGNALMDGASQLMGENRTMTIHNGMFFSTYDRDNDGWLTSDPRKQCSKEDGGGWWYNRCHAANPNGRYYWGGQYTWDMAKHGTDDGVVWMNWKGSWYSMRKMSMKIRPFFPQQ
T3 sequence (P02671 20-629 partner limits assumed): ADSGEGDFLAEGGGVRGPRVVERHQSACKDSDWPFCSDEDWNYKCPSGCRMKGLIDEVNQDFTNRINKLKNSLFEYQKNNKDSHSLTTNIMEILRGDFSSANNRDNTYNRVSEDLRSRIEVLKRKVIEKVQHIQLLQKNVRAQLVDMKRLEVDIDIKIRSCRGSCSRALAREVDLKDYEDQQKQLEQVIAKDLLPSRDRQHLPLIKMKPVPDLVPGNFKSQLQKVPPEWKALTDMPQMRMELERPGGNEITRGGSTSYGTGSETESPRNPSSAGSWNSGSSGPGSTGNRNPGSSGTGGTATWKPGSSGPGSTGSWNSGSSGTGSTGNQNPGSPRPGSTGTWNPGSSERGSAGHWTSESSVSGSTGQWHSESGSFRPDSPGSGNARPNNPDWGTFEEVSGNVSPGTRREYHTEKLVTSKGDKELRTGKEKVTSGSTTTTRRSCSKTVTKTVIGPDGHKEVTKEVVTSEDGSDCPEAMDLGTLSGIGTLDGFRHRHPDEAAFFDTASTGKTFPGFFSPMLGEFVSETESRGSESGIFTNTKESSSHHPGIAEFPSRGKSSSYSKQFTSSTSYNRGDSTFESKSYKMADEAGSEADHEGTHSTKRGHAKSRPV
Put plainly: Clotting activity of dendrimers extracted from gelatin paste after gamma irradiation and storage. The conditions noted are these: fibrinogen 3 mg/ml, 37° C. How it is done:
2 ml of solution of Peptide Dendrimer No. 12 or 13 was mixed with SURGIFLO Haemostatic Matrix (a hydrated flowable gelatin matrix) to form a paste of each peptide. Each paste was sterilised by irradiation with ^60Co gamma rays at a dose of 30 kGy, and then stored at room temperature. Samples of the sterilised pastes were used for testing after storage for two and four weeks.
After storage, peptide dendrimers were extracted from each paste using […] HEPES buffer. 30 μL of each extract (with a peptide concentration of about 0.25 mg/ml) was added to 100 μL of human fibrinogen at 3 mg/ml, and the ability of each dendrimer to polymerise fibrinogen (the ‘clotting’ activity) at 37° C. was determined using a Sigma Amelung KC4 Delta coagulation analyser. The polymerisation activity of non-irradiated control samples was also determined.

As for “Peptide Dendrimer No. 12 (peptide GPRPG; chain KKKKK)”, in experiment [1] (dendrimer 0.005-2 mg/ml, fibrinogen 3 mg/ml), the “copolymerisation with fibrinogen (clotting time)” value is “able to copolymerise with fibrinogen almost instantaneously, even at very low concentrations”. For the same substance, the “clotting time at high dendrimer concentration” value in experiment [1] (dendrimer concentrations above 0.5 mg/ml, fibrinogen 3 mg/ml) is listed as “increase in clotting time”. Moreover, the clotting result in experiment [1] (dendrimer range ~0.02-0.5 mg/ml) is listed as “almost instantaneous clotting”. In experiment [2], the “ability to polymerise fibrinogen in human plasma” value is “able to polymerise fibrinogen in human plasma” and the “clotting time in human plasma” value is on record as “less than one”. In addition, the “Clotting activity, Non-irradiated control” value in the experiment with human fibrinogen (extract from SURGIFLO paste, about 0.25 mg/ml peptide, not irradiated) was 1 s. Moreover, the “Clotting activity, Storage for 2 weeks post irradiation” value with human fibrinogen (paste irradiated 30 kGy 60Co gamma, stored 2 weeks at room temperature, about 0.25 mg/ml) turned out to be 1 s. In addition, in the experiment with human fibrinogen (paste irradiated 30 kGy 60Co gamma, stored 4 weeks at room temperature, about 0.25 mg/ml), the “Clotting activity, Storage for 4 weeks post irradiation” value is 1 s.
